From article PMC3991886, “Characterization of single-stranded DNA-binding proteins from the psychrophilic bacteria Desulfotalea psychrophila, Flavobacterium psychrophilum, Psychrobacter arcticus, Psychrobacter cryohalolentis, Psychromonas ingrahamii, Psychroflexus torquis, and Photobacterium profundum” (BMC Microbiology, 2014) come the findings set out here.

Data set [1] deals with Psychrobacter cryohalolentis single-stranded DNA-binding protein (Psychrobacter cryohalolentis). The data set can be described thus: cross-linking; 0.5% (v/v) glutaraldehyde, 15 min, 25°C, 10, 50 or 100 pmol SSB; quenched with 1 M Tris-HCl pH 8.0; SDS-PAGE (12%).
Data set [2] shares this target. Briefly: sedimentation in glycerol gradient; linear 15 to 30% (w/v) glycerol gradients in 50 mM Tris-HCl pH 7.5, 0.5 M NaCl, 1 mM EDTA, 5 mM beta-mercaptoethanol; 50 ul of 300 uM SSB; SW 60 rotor, 46,000 rpm, 24 h, 4°C; fractions by SDS-PAGE; compared with standard proteins, EcoSSB and PhaSSB.
For data set [3] the target is unchanged. Briefly: SEC; analytical gel filtration, Superdex 200 10/300 GL, 20 mM Tris-HCl pH 7.5, 150 mM NaCl, 10 mM EDTA, 0.5 ml/min; mass from a regression curve of standard proteins. (In general: Size exclusion chromatography separates by hydrodynamic size, large species first.)
The target in data set [4] is Psychroflexus torquis single-stranded DNA-binding protein (Psychroflexus torquis). The data set can be described thus: cross-linking; 0.5% (v/v) glutaraldehyde, 15 min, 25°C, 10, 50 or 100 pmol SSB; quenched with 1 M Tris-HCl pH 8.0; SDS-PAGE (12%).
Data set [5] shares this target. Briefly: sedimentation in glycerol gradient; linear 15 to 30% (w/v) glycerol gradients in 50 mM Tris-HCl pH 7.5, 0.5 M NaCl, 1 mM EDTA, 5 mM beta-mercaptoethanol; 50 ul of 300 uM SSB; SW 60 rotor, 46,000 rpm, 24 h, 4°C; fractions by SDS-PAGE; compared with standard proteins, EcoSSB and PhaSSB.
For data set [6] the target is unchanged. Briefly: SEC; analytical gel filtration, Superdex 200 10/300 GL, 20 mM Tris-HCl pH 7.5, 150 mM NaCl, 10 mM EDTA, 0.5 ml/min; mass from a regression curve of standard proteins.
For data set [7], the target named is Psychrobacter arcticus single-stranded DNA-binding protein (Psychrobacter arcticus) (UniProt Q4FR27). Briefly: cross-linking; 0.5% (v/v) glutaraldehyde, 15 min, 25°C, 10, 50 or 100 pmol SSB; quenched with 1 M Tris-HCl pH 8.0; SDS-PAGE (12%).
Data set [8] shares this target. The data set can be described thus: sedimentation in glycerol gradient; linear 15 to 30% (w/v) glycerol gradients in 50 mM Tris-HCl pH 7.5, 0.5 M NaCl, 1 mM EDTA, 5 mM beta-mercaptoethanol; 50 ul of 300 uM SSB; SW 60 rotor, 46,000 rpm, 24 h, 4°C; fractions by SDS-PAGE; compared with standard proteins, EcoSSB and PhaSSB.
The target is the same in data set [9]. The data set can be described thus: SEC; analytical gel filtration, Superdex 200 10/300 GL, 20 mM Tris-HCl pH 7.5, 150 mM NaCl, 10 mM EDTA, 0.5 ml/min; mass from a regression curve of standard proteins.
The test system of data set [10] is DpsSSB (Desulfotalea psychrophila LSv54 (DSM 12343)). The data set can be described thus: fluorescence titration. The conditions noted are these: 2-300 mM NaCl, site size 31 ± 2 nt, EMSA: 20 mM Tris-HCl pH 8.0, 100 mM NaCl, 1 mM EDTA, 25 C, 2% agarose in TAE, fluorescence titration: 20 mM Tris-HCl pH 8.0, 1 mM EDTA, 2/100/300 mM NaCl. A general note: In EMSA bound probe runs differently from free probe, usually more slowly.

The target in data set [11] is Photobacterium profundum single-stranded DNA-binding protein (Photobacterium profundum) (UniProt Q6LM83). Briefly: cross-linking; 0.5% (v/v) glutaraldehyde, 15 min, 25°C, 10, 50 or 100 pmol SSB; quenched with 1 M Tris-HCl pH 8.0; SDS-PAGE (12%).
Data set [12] has the same target. Briefly: sedimentation in glycerol gradient; linear 15 to 30% (w/v) glycerol gradients in 50 mM Tris-HCl pH 7.5, 0.5 M NaCl, 1 mM EDTA, 5 mM beta-mercaptoethanol; 50 ul of 300 uM SSB; SW 60 rotor, 46,000 rpm, 24 h, 4°C; fractions by SDS-PAGE; compared with standard proteins, EcoSSB and PhaSSB.
The target is the same in data set [13]. The data set can be described thus: SEC; analytical gel filtration, Superdex 200 10/300 GL, 20 mM Tris-HCl pH 7.5, 150 mM NaCl, 10 mM EDTA, 0.5 ml/min; mass from a regression curve of standard proteins.
Data set [14] concerns the target Desulfotalea psychrophila single-stranded DNA-binding protein (Desulfotalea psychrophila). The data set can be described thus: cross-linking; 0.5% (v/v) glutaraldehyde, 15 min, 25°C, 10, 50 or 100 pmol SSB; quenched with 1 M Tris-HCl pH 8.0; SDS-PAGE (12%).
Data set [15] has the same target. The data set can be described thus: sedimentation in glycerol gradient; linear 15 to 30% (w/v) glycerol gradients in 50 mM Tris-HCl pH 7.5, 0.5 M NaCl, 1 mM EDTA, 5 mM beta-mercaptoethanol; 50 ul of 300 uM SSB; SW 60 rotor, 46,000 rpm, 24 h, 4°C; fractions by SDS-PAGE; compared with standard proteins, EcoSSB and PhaSSB.
The target is the same in data set [16]. The data set can be described thus: SEC; analytical gel filtration, Superdex 200 10/300 GL, 20 mM Tris-HCl pH 7.5, 150 mM NaCl, 10 mM EDTA, 0.5 ml/min; mass from a regression curve of standard proteins.
Data set [17] concerns the target Psychromonas ingrahamii single-stranded DNA-binding protein (Psychromonas ingrahamii). Briefly: cross-linking; 0.5% (v/v) glutaraldehyde, 15 min, 25°C, 10, 50 or 100 pmol SSB; quenched with 1 M Tris-HCl pH 8.0; SDS-PAGE (12%).
Data set [18] shares this target. Briefly: sedimentation in glycerol gradient; linear 15 to 30% (w/v) glycerol gradients in 50 mM Tris-HCl pH 7.5, 0.5 M NaCl, 1 mM EDTA, 5 mM beta-mercaptoethanol; 50 ul of 300 uM SSB; SW 60 rotor, 46,000 rpm, 24 h, 4°C; fractions by SDS-PAGE; compared with standard proteins, EcoSSB and PhaSSB.
Data set [19] has the same target. Briefly: SEC; analytical gel filtration, Superdex 200 10/300 GL, 20 mM Tris-HCl pH 7.5, 150 mM NaCl, 10 mM EDTA, 0.5 ml/min; mass from a regression curve of standard proteins.
Data set [20] concerns the molecule itself. The data set can be described thus: cross-linking; 0.5% (v/v) glutaraldehyde, 15 min, 25°C, 10, 50 or 100 pmol SSB; quenched with 1 M Tris-HCl pH 8.0; SDS-PAGE (12%).
Data set [21] concerns the molecule itself. The data set can be described thus: SEC; analytical gel filtration, Superdex 200 10/300 GL, 20 mM Tris-HCl pH 7.5, 150 mM NaCl, 10 mM EDTA, 0.5 ml/min; mass from a regression curve of standard proteins.
A further data set addresses T1, PcrSSB (Psychrobacter cryohalolentis K5 (DSM …, UniProt Q1Q9B8 1-1+=G+2-219, internal_change)).
T1 sequence: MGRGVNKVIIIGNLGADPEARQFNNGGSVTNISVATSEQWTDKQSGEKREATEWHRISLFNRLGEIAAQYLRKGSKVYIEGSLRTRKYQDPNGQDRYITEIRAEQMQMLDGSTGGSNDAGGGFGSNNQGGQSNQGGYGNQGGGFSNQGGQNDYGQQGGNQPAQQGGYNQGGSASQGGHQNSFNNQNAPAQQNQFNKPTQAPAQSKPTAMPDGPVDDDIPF
The data set can be described thus: EMSA; complex I only; EMSA: 20 mM Tris-HCl pH 8.0, 100 mM NaCl, 1 mM EDTA, 25 C, 2% agarose in TAE; fluorescence titration: 20 mM Tris-HCl pH 8.0, 1 mM EDTA, 2/100/300 mM NaCl, 25 C. The following applies: protein: recombinant; tags: none (stop codon in reverse primer); chain copies: 4; label: 5'-fluorescein.

A further data set deals with T2, PprSSB (Photobacterium profundum (LMG 19446), UniProt Q6LM83 5-187).
T2 sequence: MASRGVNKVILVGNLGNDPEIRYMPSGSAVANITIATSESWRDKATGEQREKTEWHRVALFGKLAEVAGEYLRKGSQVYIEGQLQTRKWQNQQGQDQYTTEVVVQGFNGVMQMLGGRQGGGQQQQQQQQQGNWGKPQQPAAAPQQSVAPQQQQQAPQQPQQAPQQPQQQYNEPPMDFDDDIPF
Described as above. The conditions noted are these: protein: recombinant; tags: none (stop codon in reverse primer); chain copies: 4; label: 5'-fluorescein.

A further data set has as its target T3, PtoSSB (Psychroflexus torquis ATCC 700755 (LMG …, UniProt K4IS14 1-151)).
T3 sequence: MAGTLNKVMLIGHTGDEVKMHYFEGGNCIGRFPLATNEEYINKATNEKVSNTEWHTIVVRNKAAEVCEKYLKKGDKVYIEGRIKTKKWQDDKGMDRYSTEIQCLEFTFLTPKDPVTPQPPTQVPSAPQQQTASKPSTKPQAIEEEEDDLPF
Described as above. The conditions noted are these: protein: recombinant; tags: none (stop codon in reverse primer); chain copies: 4; label: 5'-fluorescein.

For the next data set, the target named is T4, PinSSB (Psychromonas ingrahamii 37 (DSM 17664), UniProt A1T012 1-1+=G+2-222, internal_change).
T4 sequence: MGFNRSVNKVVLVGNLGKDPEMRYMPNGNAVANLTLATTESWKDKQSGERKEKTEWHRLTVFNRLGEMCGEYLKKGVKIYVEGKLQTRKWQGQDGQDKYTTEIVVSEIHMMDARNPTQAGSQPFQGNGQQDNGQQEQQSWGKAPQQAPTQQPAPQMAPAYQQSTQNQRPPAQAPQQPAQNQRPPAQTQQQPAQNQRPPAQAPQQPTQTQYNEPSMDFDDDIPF
Described as above. The following applies: protein: recombinant; tags: none (stop codon in reverse primer); chain copies: 4; label: 5'-fluorescein.

Regarding “Psychrobacter cryohalolentis single-stranded DNA-binding protein (natural protein)”, the stoichiometry N in [1] and in [2] was 4 each time. This molecule had a stoichiometry N (mass monomers) in data set [3] of 4.1.

“Psychroflexus torquis single-stranded DNA-binding protein (natural protein)”: the stoichiometry N in [4] and in [5] was 4 in each case. The same molecule displayed a stoichiometry N (mass monomers) in data set [6] of 4.2.

For the molecule “Psychrobacter arcticus single-stranded DNA-binding protein (from UniProt Q4FR27 1-213) (natural protein)”, the stoichiometry N in data set [7] and in [8] was 4 each time. For the same molecule, the stoichiometry N (mass monomers) in data set [9] stood at 4.1.

“TTTTTTTTTTTTTTTTTTTTTTTTTTTTTTTTTTTTTTTTTTTTTTTTTTTTTTTTTTTTTTTTTTTTTTTTTTTT [(dT)76]” gave a binding signal (% Trp fluorescence quench at saturation) in data set [10] of 93.

Regarding “Photobacterium profundum single-stranded DNA-binding protein (from UniProt Q6LM83 1-187) (natural protein)”, the stoichiometry N in [11] and in data set [12] was 4 in each case. For the same molecule, the stoichiometry N (mass monomers) in [13] came to 4.2.

On to “Desulfotalea psychrophila single-stranded DNA-binding protein (natural protein)”, for which the stoichiometry N in [14] was 4; in data set [15] it was 4; in [16], 3.8 mass monomer.

“Psychromonas ingrahamii single-stranded DNA-binding protein (natural protein)”: the stoichiometry N in data set [17] and in [18] was 4 in each case. For the same molecule, in [19], the stoichiometry N (mass monomers) is 4.1.

B1: Flavobacterium psychrophilum single-stranded DNA-binding protein (natural protein)
chain: MGNGTLNKVMLIGHLGEDIKMHYFDGGNCIGRFPLATNEIYINKSTNEKITSTEWHNVVVRNKAAEICEKYLSKGDKIYVEGRIKSRQWQAEDGTVKYTTEIQVTEFTFLNTKKDSEIVKTASEAPKTTSFDSTVENDLPF
notes: SSB of Flavobacterium psychrophilum JIP02/86 (LMG 13180), 140 amino acid residues including the N-terminal methionine, 15.9 kDa monomer; Cloned in pBAD/myc-HisA between NcoI and HindIII; the reverse primer carries the gene's stop codon, so the vector's C-terminal myc-His tag is probably not on the protein (surmised); The forward primer has two G that are not complementary to the gene, which adds …
Regarding B1, the “stoichiometry N” value in data set [20] is 4; in data set [21] it was 4.4 mass monomer.

B2: (dT)35 (ssDNA)
DNA: TTTTTTTTTTTTTTTTTTTTTTTTTTTTTTTTTTT
With B2, the binding result with PcrSSB, in the data set with PprSSB, in the data set with PtoSSB and with PinSSB was “binds” throughout.

By stoichiometry N is commonly meant a count of units in the complex or per binding partner.
